Test results as given in PMC10801922 (Proceedings of the National Academy of Sciences of the …, 2024).

Experiments:
[1] = target: SARS-CoV-2 Delta (B.1.617.2) receptor-binding domain (SARS-CoV-2 Delta (B.1.617.2), strain)
[2] = target: T1, SARS-CoV-2 G614 (wild-type) receptor-binding domain (SARS-CoV-2, UniProt P0DTC2)
[3] = target: SARS-CoV-2 Alpha (B.1.1.7) receptor-binding domain (SARS-CoV-2 Alpha (B.1.1.7), strain)
[4] = target: T1, SARS-CoV-2 G614 (wild-type) …; assay: ELISA; conditions: both partners purified

B1: rmAb23 (antibody, V domains shown)
VH: EVQLVESGGGLIQPGGSLRLSCAASGFTVSSNYMSWVRQAPGKGLEWVAVIYSGGSTDYADSVKGRFTISRDNSKNTLHLQMNSLRAEDTAVYYCARDLVVYGMDVWGQGTTVTVSS
VL: DIQLTQSPSFLSASVGDRVTITCRASQGISSYLAWYQQKPGKAPKLLIYAASTLQSGVPSRFSGSGSGTEFTLTISSLQPEDFATYYCQQLNSYPLTFGPGTKVDIK
For B1, the binding result [1] was “binds”, the Kd [2] was 6.5 nM and the binding result [3] was “binds”.

B2: 01A05 (antibody, V domains shown)
VH: QVQLVQSGAEVKKPGASVKVSCKASGYTFTSYGISWVRQAPGQGLEWMGWISADNGNTNYAQKLQGRVTMTTDTSTSTAYMELRSLRSDDTAVYYCARVPMFVVPNCSGGGCYRRAWEAGLDVWGQGTTVTVSS
VL: DIQMTQSPSSLSASVGDRVTITCRASQSISNYLNWYQQRPGRAPKLLIYTTSNLQSGVPSRFSGSGSGTDFTLTISSLQPEDFATYFCQQSFTGTFGGGTKVEIK
In the case of B2, the binding result [1] is reported as “binds”, the Kd [2] is reported as 2.5 nM and the binding result [3] is reported as “binds”.

B3: XG014 IgG (antibody, V domains shown)
VH: EVQLVQSGAEVKKPGESLKISCKGSGYSFSNYWIGWVRHMPGKGLEWMGIIYPGDSDTRYSPSFQGQVTISVDTSISTAYLQWSSLKASDTAMYYCTRHQYGYNYGYFYYYIDVWGKGTTVTVSS
VL: QSVLTQPPSVSAAPGQKVTISCSGSSSNIGNNPVSWYRQVPGTAPKLLIYDNNKRPSGIPDRFSGSKSGASATLGITGLQTGDEADYYCGTWHTSLSSGVFGGGTKLTVL
notes: also called parental IgG; source: recombinant
B3: binds [4].
